Experiment [1] concerns the target Alexa 488-labelled, crosslinked recombinant histone octamer (H2A, H2B T112C-Alexa 488, H3 C110A, H4 T71C) (UniProt P06897). Kind of experiment: other fluorescence titration; 5 nM Alexa 488-labelled octamer titrated with NP (pentamer concentration); 150 mM NaCl, 1 mM DTT, 0.1 mg/ml BSA, 20 mM Tris-HCl pH 7.5; ligand-depleted model with two pentamers per octamer; apparent.

Experiment [2] addresses Histone H2A-H2B dimer, natural source (chicken erythrocyte chromatin) (chicken) (UniProt P02263). Description: native gel or EMSA; 8% native PAGE run from the positive to the negative electrode; fixed histones (10 µM H2A-H2B or H3-H4 dimers, 2.5 µM octamer) with increasing tail domain, 150 mM NaCl, 20 mM Tris-HCl pH 7.6, RT, 1 h. (Mobility shift assays separate free from complexed probe on a gel.)

The target of experiment [3] is Crosslinked histone octamer (dimethyl suberimidate) (not stated (chicken erythrocyte or recombinant histones)). The description is as above.
Experiment [4] deals with Recombinant nucleoplasmin, full length (rNP) (X. laevis) (UniProt P05221). Description: native gel or EMSA; NP alone on 4-16% native PAGE (Figs 2B and S3); pentamers to decamer.

On to “Recombinant nucleoplasmin lacking the last 50 residues (rNPΔ150–200) (from UniProt P05221 1-149) (domain or fragment)”, for which the Kd in experiment [1] turned out to be 0.27 nM. Turning to “Phosphomimetic C-terminal tail domain of nucleoplasmin (rNP113–200-4D) (from UniProt P05221 113-200) (domain or fragment)”, the stoichiometry N (tail domain/H2A-H2B dimer) in experiment [2] came to 1. In addition, the stoichiometry N (C-terminal tails per crosslinked octamer) in experiment [3] was 4. Regarding “Egg nucleoplasmin (eNP) from X. laevis, natural hyperphosphorylated pentamer (from UniProt P05221 1-200) (natural protein)”, in experiment [1], the Kd is 0.04 nM. In general, stoichiometry N refers to a count of units in the complex or per binding partner. “Recombinant nucleoplasmin, full length (rNP) (from UniProt P05221 1-200) (natural protein)”: the stoichiometry N in experiment [4] came out at 10.

(Values after article PMC6602930.)
